Experiments:
Assay type in all cases: cell-based, human
[1] = tested on: Raji cells; test: Cell surface CVID and TLR4 receptors on LRBA WT and LRBA KD Raji cells (flow cytometry)
Text: LRBA is an important vesicle trafficking regulator (Wang, et al., Identification of a novel lipopolysaccharide-inducible gene with key features of both A kinase anchor proteins and chs1/beige proteins. 2001. J Immunol 166: 4586-4595; Cullinane, et al., The BEACH Is Hot: A LYST of Emerging Roles for BEACH-Domain Containing Proteins in Human Disease. 2013. Traffic) and may function as a master regulator of multiple CVID receptors. To test this, LRBA WT and LRBA KD Raji cells were stimulated with LPS, and the cell surface levels of CVID receptors and TLR4 were analyzed by flow cytometry. BD FACSelect Multicolor Panel Designer was used to search antibodies and build up the panel for multiple color cytometry for LSRII FACS machine. Fluorophores directly conjugated antibodies against cell surface CVID proteins were used: CD19-PerCP-Cy5.5, CD2O-PE-Cy7, CD21-V450, BAFFR-PE, TACI-APC, and CD81-APC-H7. Two panels were used when use live/dead discrimination with DAPI […] or 7AAD (overlap with V450). The standard staining procedures were followed and 20,000 to half million cells were acquired. Data acquisition was performed using FACS LSRII flow cytometers and analyzed using FACSDiva version 6.1.2.

[2] = tested on: LRBA; test: Knockdown of LRBA in Raji B cell lines stably transfected with LRBA shRNA; details: three Raji B cell lines stably transfected
Procedure: Three Raji B cell lines stablely transfected with LRBA shRNA that knockdown LRBA over 90% were generated, along with […] mouse cell lines stably transfected with a LRBA DNM.
LRBA was tested for its effect on cell growth. For the “loss of function” strategy, EBV immotalized LRBA-deficient B cell lines were generated from LRBA deficient patients, and dominant negative LRBA mutants (DNM) and knockout mouse models. The LRBA sequence targeted by the shRNA used was SEQ ID No. 15;

[3] = tested on: Raji and Raji9 cells; test: Annexin V apoptosis assay after infection with adenoviruses or Gram-negative bacteria; details: 24 hrs after infection with adenoviruses or Gram-negative bacteria
Procedure: FIGS. 49(A) through (B) are graphs showing cells with LRBA knockdown cannot fight viral and bacterial infections efficiently. Half million of Raji and Raji9 cells were infected with adenoviruses at 100 multiplicity of infection (MOI) or 50 μl of Gram-negative bacteria from overnight culture. After 24 hours of incubation at 37° C., Apoptosis was detected by Annexin V-PE and 7-AAD. Cells that were double negative (left lower quadrant) were viable, Annexin only positive cells (right lower quadrant) were early phase of apoptosis or other cell death, and double positive cells (right upper quadrant) were end stage apoptosis or dead. ****p<9E-05, *p<0.007.
In order for pathogens to efficiently spread to neighboring cells and evade the immune cells, and/or gain nutrients, one prominent strategy of many bacterial pathogens is to cause host cell death (31). On another hand, the host cell, first will try to kill the evaded pathogens. As such, cell death may be used as a hallmark of immunodeficiency. […] It is hypothesized that Raji cells with LRBA knockdown can serve as an immunodeficiency in vitro model, i.e. they cannot fight pathogens efficiently when compared to wild type cells, manifested as more cell death.

[4] = Raji cell surface, LPS stimulated, Knockdown

B1: LRBA shRNA: shRNA plasmid against LRBA; targeted LRBA sequence SEQ ID No. 15 GGGATATTGTAGAAACTGTCTTT (nucleic acid)
sense: GGGATATTGTAGAAACTGTCTTTTTCAAGAGAAAAGACAGTTTCTACAATATCCCTTTTTT
antisense: CCCTATAACATCTTTGACAGAAAAAGTTCTCTTTTCTGTCAAAGATGTTATAGGGAAAAAA
BAFFR Median Intensity [1, 4]: 4198.00 ± 496.75 arbitrary fluorescence intensity units | BAFFR Percentage [1, 4]: 90.83 ± 0.93% | CD19 Median Intensity [1, 4]: 5830.17 ± 159.95 arbitrary fluorescence intensity units | CD19 Percentage [1, 4]: 98.57 ± 0.28% | CD20 Median Intensity [1, 4]: 29541.25 ± 332.06 arbitrary fluorescence intensity units | CD20 Percentage [1, 4]: 99.18 ± 0.04% | CD21 Median Intensity [1, 4]: 1659.50 ± 72.48 arbitrary fluorescence intensity units | CD21 Percentage [1, 4]: 55.08 ± 5.00% | TACI Median Intensity [1, 4]: 1813.50 ± 412.89 arbitrary fluorescence intensity units | TACI Percentage [1, 4]: 7.38 ± 1.49% | TLR4 Median Intensity [1, 4]: 11204.60 ± 2171.10 arbitrary fluorescence intensity units | TLR4 Percentage [1, 4]: 31.27 ± 11.42% | BAFFR Median Intensity fold ([1]; Wild type vs Knockdown): 0.81↑ | BAFFR Percentage fold ([1]; Wild type vs Knockdown): 0.96↑ | CD19 Median Intensity fold ([1]; Wild type vs Knockdown): 1.23↓ | CD19 Percentage fold ([1]; Wild type vs Knockdown): 1.00 | CD20 Median Intensity fold ([1]; Wild type vs Knockdown): 1.21↓ | CD20 Percentage fold ([1]; Wild type vs Knockdown): 1.00 | CD21 Median Intensity fold ([1]; Wild type vs Knockdown): 0.96↑ | CD21 Percentage fold ([1]; Wild type vs Knockdown): 0.49↑ | TACI Median Intensity fold ([1]; Wild type vs Knockdown): 1.33↓ | TACI Percentage fold ([1]; Wild type vs Knockdown): 4.07↓ | TLR4 Median Intensity fold ([1]; Wild type vs Knockdown): 1.04 | TLR4 Percentage fold ([1]; Wild type vs Knockdown): 1.82↓ | knockdown of LRBA [2]: over 90% | dead cells or apoptotic cells (Annexin V-PE, 7-AAD) [3]: more dead cells or apoptotic cells
